Assay results published in US20230374116A1.
Read-outs that look alike come from different tables or passages of the source.

How the values were obtained:
Beta RBD-Fc [1] = target: Beta RBD-Fc
Beta RBD-Fc [2] = target: Beta RBD-Fc; remark: listed apart in the source

Binder	Kd (Beta RBD) [pM]	T1/2 (Beta RBD-Fc [1]) [min]	koff (Beta RBD-Fc [1]) [s⁻¹]	kon (Beta RBD-Fc [1]) [M⁻¹ s⁻¹]	Kd (Beta RBD-Fc [2]) [pM]	T1/2 (Beta RBD-Fc [2]) [min]	koff (Beta RBD-Fc [2]) [s⁻¹]	kon (Beta RBD-Fc [2]) [M⁻¹ s⁻¹]
NbSA_D10 (VHH) VHH: QVQLVESGGGLVQVGGSLRLSCAVSGRTSSDYSVGWFRRAQGKEREFVAALAWTVGATHYGDSVKGRFTVSRDNAKNMVYLQIDSLKPEDTGVYYCAGRYGAGLGFTERIYDYWGQGTQVTVSS	936	18	0.0006	640000				
8_G11 (VHH) VHH: QVQLVESGGGLVQAGGSLRLSCAASGRTITEYTIGWFRQAPGKEREFVTLISKSTDSTWDADSVKGRFTIARDYAKNTVYLQMNSLKPEDTAVYYCAAGSFYGRDSDAGGYDYWGQGTQVTVSS					443	20	0.00057	1.3e+06
3_C5 (VHH) VHH: QVQLVESGGGLVQAGGSLRLSCAASGRTLSMRRMSWFRQAPGKEREFVATINWSSGSIYVTDSVKDRFTISRDNAENTVHLQMNMLKPEDTAVYSCAVQVDIGGYLDGYDYWGQGTQVTVSS					895	14	0.0008	900000
NbSA_A10 (VHH) VHH: QVQLVESGGGLVQAGDSLRLSCAASGRTFSTTRMAWFRQPPGKEREFVAAIFLNTGTTYYADPVKDRFAISRDNAKNTVYLQMNSLKPEDTAVYYCAAGRFSAAPLTQSTAFESWGQGTQVTVSA	30							
12_F11 (VHH) VHH: QVQLVESGGGLVQAGGSLRLSCAASGGAFSTSAMGWFRQAPGKEREFVAVIGWRGVRTYYADSVKGRFTIARDNPQNRVYLEMSSLKSDDTGVYFCAASDGNYGLPWAHFEYDFWGQGIQVTSS					236	12	0.00096	4.1e+06
